{"source": "paper PMC2959089", "about": "“The intriguing Cyclophilin A-HIV-1 Vpr interaction: prolyl cis/trans isomerisation catalysis and specific binding” (BMC Structural Biology, 2010)", "target": "recombinant human Cyclophilin A (CypA) (human) (UniProt P62937)", "sequence (P62937 whole entry)": "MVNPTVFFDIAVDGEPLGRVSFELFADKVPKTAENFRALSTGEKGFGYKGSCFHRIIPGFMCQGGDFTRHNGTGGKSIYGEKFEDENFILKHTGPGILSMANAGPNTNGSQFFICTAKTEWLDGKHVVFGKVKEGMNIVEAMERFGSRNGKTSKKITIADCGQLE", "assay": "SPR", "note": "pKd: −log10 of the molar value.", "data": [{"substance": "synthetic HIV-1 Vpr peptide sVpr^1-40", "values": [{"measurement": "pKd", "value": 3.55}, {"measurement": "ka1 (two-state model, association)", "value": 752, "unit": "M⁻¹ s⁻¹"}, {"measurement": "ka2 (two-state model, forward rate)", "value": 0.0073, "unit": "s⁻¹"}, {"measurement": "kd1 (two-state model, dissociation)", "value": 0.37, "unit": "s⁻¹"}, {"measurement": "kd2 (two-state model, backward rate)", "value": 0.0099, "unit": "s⁻¹"}]}, {"substance": "synthetic mutant HIV-1 Vpr peptide sVpr^1-40 P5,10,14N", "values": [{"measurement": "pKd", "value": 2.21}, {"measurement": "ka1 (two-state model, association)", "value": 46, "unit": "M⁻¹ s⁻¹"}, {"measurement": "ka2 (two-state model, forward rate)", "value": 0.0047, "unit": "s⁻¹"}, {"measurement": "kd1 (two-state model, dissociation)", "value": 0.56, "unit": "s⁻¹"}, {"measurement": "kd2 (two-state model, backward rate)", "value": 0.0048, "unit": "s⁻¹"}]}]}
